{"source": "patent US20100075394A1", "biological_target": "ACP-HA labeled via ACP with Cy3", "assay": "mock pull-down on magnetic beads from an equimolar mixture of Cy3-ACP-HA and Cy3-ACP-CaM-PCP; SDS-PAGE and in-gel fluorescence scanning; reference is ACP-CaM-PCP"}
{"substance": "primary-chloride-derivatized 12CA5 antibody immobilized via covalin on magnetic beads displaying BG", "values": [{"measurement": "enrichment of ACP-HA over ACP-CaM-PCP", "value": 80, "unit": "fold"}]}
